In publication PMC3784150, “Characterization of C-S Lyase from C. diphtheriae: A Possible Target for New Antimicrobial Drugs” (BioMed Research International, 2013):

Legend:
C-S lyase = target: T1, C-S lyase (Corynebacterium diphtheriae, UniProt Q6NFZ9); assay: fluorescence titration of apoenzyme (emission at […] nm); type: binding
T1 construct: gene aecD; recombinant His-tagged apoenzyme

[1] = target: pyridoxal-5′-phosphate (PLP-) dependent C-S lyase from Corynebacterium diphtheriae (Corynebacterium diphtheriae); assay: SEC; analytical Superdex 200 HR 10/30, 20 mM sodium phosphate pH 7.2, 150 mM NaCl, 0.1 mL/min; calibrated with mass standards 12.4-669 kDa; apparent mass 85 kDa against about 44 kDa for the subunit
[2] = test system: N[C@@H](CCSC[C@H](N)C(=O)O)C(=O)O; assay: steady-state kinetics, Km; type: biochemical, Corynebacterium diphtheriae; conditions: PLP; pH 9.0; 30.0 °C
N[C@@H](CS)C(=O)O = assay: purified protein; conditions: PLP
[3] = test system: N[C@@H](CCSC[C@H](N)C(=O)O)C(=O)O; assay: purified protein; conditions: PLP; pH 9.0; 30.0 °C

## Cc1ncc(COP(=O)(O)O)c(C=O)c1O [PLP, pyridoxal-5′-phosphate]
C-S lyase
  Kd: 90 ± 30 nM

## pyridoxal-5′-phosphate (PLP-) dependent C-S lyase from Corynebacterium diphtheriae (enzyme)
[1]
  stoichiometry N: 2

## C-S lyase (Corynebacterium diphtheriae NCTC 13129; Y114F)
[2]
  Km: 200 ± 10 µM
  kcat: 1.2 ± 0.02 s⁻¹

## C-S lyase (Corynebacterium diphtheriae NCTC 13129)
N[C@@H](CS)C(=O)O
  Km: 950 ± 180 µM
[3]
  Km: 1070 ± 220 µM
  kcat: 92.7 ± 4.44 s⁻¹
